Reference: patent publication US20250084176A1 (F STAR BETA, published 2025)
One block for each binder: values may come before it.

How the values were obtained:
[1] = biological target: T1, mouse CD137 ligand on DO11.10 cells (mouse, UniProt P41274 1-309); assay: flow cytometry, detection with anti mouse Fc fragment antibody
T1 construct: whole, on cells
T1 sequence (looked up): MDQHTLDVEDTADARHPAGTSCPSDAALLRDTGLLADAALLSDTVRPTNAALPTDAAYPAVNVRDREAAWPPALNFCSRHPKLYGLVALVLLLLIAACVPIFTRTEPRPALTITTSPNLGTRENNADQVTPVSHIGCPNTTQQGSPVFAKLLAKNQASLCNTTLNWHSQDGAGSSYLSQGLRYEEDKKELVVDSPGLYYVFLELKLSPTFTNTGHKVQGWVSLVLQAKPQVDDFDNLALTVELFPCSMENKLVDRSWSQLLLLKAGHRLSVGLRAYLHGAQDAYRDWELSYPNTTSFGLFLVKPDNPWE
Experimental: In more detail, materials from the same production lot were mixed together and analysed for stability and purity by size-exclusion high-performance liquid chromatography (SE-HPLC), SDS polyacrylamide gel electrophoresis (SDS-PAGE), and size-exclusion chromatography with multi-angle light scattering (SEC-MALS). […] Cells were incubated with the CD137 antigens for 1 hour, and then a fluorescently-labelled anti mouse Fc fragment antibody was used to detect cell binding.

[2] = biological target: T2, mouse CD137, full length, on cells (mouse, UniProt P20334 24-256); assay: cell-based or functional assay
[3] = biological target: mouse CD40 (mouse, UniProt P27512 24-193, limits assumed, biotinylated (EZ-Link Sulfo-NHS-SS-Biotin)); assay: BLI (Octet QKe), biotinylated receptor on streptavidin sensors
Experimental: (§1) The specificity of the anti-mouse CD137 Fcabs for mouse CD137 was tested in HeID1.3 “mock” mAb² format and measured by BLI in an Octet QKe system by testing for binding of the Fcabs to other mouse TNFRSF receptors (CD40, OX40, GITR). […] Anti-mouse CD137 Fcabs in mock mAb² format were diluted 1:1 in kinetic buffer (PALL 18-1092) to a final concentration of at least 1 μM. Antigen-coated sensors were dipped into the mAb² solutions for 180 seconds followed by 180 seconds in 1× kinetic buffer. Antibodies for each of the TNFRSF receptors were used as positive controls.

[4] = biological target: T3, mouse GITR (mouse, UniProt O35714 20-153, limits assumed, biotinylated (EZ-Link Sulfo-NHS-SS-Biotin)); assay: as above
T3 sequence (looked up): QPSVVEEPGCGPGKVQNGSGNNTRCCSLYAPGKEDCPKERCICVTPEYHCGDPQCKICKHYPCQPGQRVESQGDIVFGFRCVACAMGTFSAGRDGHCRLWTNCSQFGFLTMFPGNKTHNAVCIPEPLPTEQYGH
Experimental: as §1

[5] = biological target: T2, mouse CD137, full length, on cells; assay: cell-based or functional assay; remark: listed apart in the source

Sequence of mouse CD40 (P27512 24-193 limits assumed): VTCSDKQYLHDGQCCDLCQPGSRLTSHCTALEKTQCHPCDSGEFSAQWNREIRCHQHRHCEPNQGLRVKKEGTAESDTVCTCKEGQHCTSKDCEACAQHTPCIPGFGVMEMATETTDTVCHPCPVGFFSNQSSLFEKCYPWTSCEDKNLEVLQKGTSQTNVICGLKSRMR

binding result [1]: binds
B1: mCD137-mFc-Avi (Fc fusion)
chain: VQNSCDNCQPGTFCRKYNPVCKSCPPSTFSSIGGQPNCNICRVCAGYFRFKKFCSSTHNAECECIEGFHCLGPQCTRCEKDCRPGQELTKQGCKTCSLGTFNDQNGTGVCRPWTNCSLDGRSVLKTGTTEKDVVCGPPVVSFSPSTTISVTPEGGPGGHSLQVL
modifications: one biotin on the Avi sequence of each monomer (BirA); unbiotinylated in the SPR of Example 5.6
notes: also called mouse CD137-mFc-Avi; dimeric mouse CD137; not shown: mouse IgG2a Fc domain (mIgG2a Fc)

NF-kB luciferase reporter (HEK.FRT.luc.mCD137), Protein L crosslinked: EC50 [2]: 1.44 nM
NF-kB luciferase reporter (HEK.FRT.luc.mCD137): fold-change in activity upon crosslinking [2]: 27 fold
binding result [3]: no binding (tested: at least 1 µM)
binding result [4]: no binding (tested: at least 1 µM)
IL-2 release, mouse CD137 DO11.10 T cell activation assay, Protein L: +XL EC50 [5]: 0.39 nM
IL-2 release, mouse CD137 DO11.10 T cell activation assay, Protein L: +XL Emax [5]: 24200 pg/mL
B2: FS22m-063/HelD1.3 (bispecific antibody, human IgG1, kappa)
heavy: QVQLQESGPGLVRPSQTLSLTCTVSGSTFSGYGVNWVRQPPGRGLEWIGMIWGDGNTDYNSALKSRVTMLVDTSKNQFSLRLSSVTAADTAVYYCARERDYRLDYWGQGSLVTVSSASTKGPSVFPLAPSSKSTSGGTAALGCLVKDYFPEPVTVSWNSGALTSGVHTFPAVLQSSGLYSLSSVVTVPSSSLGTQTYICNVNHKPSNTKVDKKVEPKSCDKTHTCPPCPAPELLGGPSVFLFPPKPKDTLMISRTPEVTCVVVDVSHEDPEVKFNWYVDGVEVHNAKTKPREEQYNSTYRVVSVLTVLHQDWLNGKEYKCKVSNKALPAPIEKTISKAKGQPREPQVYTLPPSRDEPYWSYVSLTCLVKGFYPSDIAVEWESNGQPENNYKTTPPVLDSDGSFFLYSKLTVMNYRWELGNVFSCSVMHEALHNHYTQKSLSLSPG
light: DIQMTQSPASLSASVGETVTITCRASGNIHNYLAWYQQKQGKSPQLLVYNAKTLADGVPSRFSGSGSGTQYSLKINSLQPEDFGSYYCQHFWSTPRTFGGGTKLEIKRTVAAPSVFIFPPSDEQLKSGTASVVCLLNNFYPREAKVQWKVDNALQSGNSQESVTEQDSKDSTYSLSSTLTLSKADYEKHKVYACEVTHQGLSSPVTKSFNRGEC
notes: also called FS22m-063 in HeID1.3 mock mAb^2 format
